T1: biotinylated 6His tag-AviTag-linked mature human IL-33 (residues 112 to 270) (human, UniProt O95760 112-270, biotin on the AviTag portion (BirA))
T1 construct: made in E. coli; also called biotinylated human IL-33 protein
T1 sequence: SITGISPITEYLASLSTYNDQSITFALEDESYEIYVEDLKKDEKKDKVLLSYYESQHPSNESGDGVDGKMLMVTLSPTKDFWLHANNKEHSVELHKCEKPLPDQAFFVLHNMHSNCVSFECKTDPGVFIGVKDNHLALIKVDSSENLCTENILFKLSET

T2: 6His-AviTag-linked cynomolgus monkey IL-33 (residues 112 to 269) (cynomolgus monkey, UniProt O95760 112-269 (human entry), biotin on the AviTag portion (BirA) in the SPR of Example 7; used without biotinylation in Example 10)
T2 construct: GenBank EHH57404 printed; also called cynomolgus monkey IL-33 protein; mature cynomolgus monkey IL-33
T2 chain: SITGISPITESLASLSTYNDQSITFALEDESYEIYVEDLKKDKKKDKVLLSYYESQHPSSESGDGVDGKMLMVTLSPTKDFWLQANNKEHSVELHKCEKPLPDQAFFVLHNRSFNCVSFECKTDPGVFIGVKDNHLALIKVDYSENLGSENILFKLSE


Tests used:
[1] = biological target: T1, biotinylated 6His tag-AviTag-linked …; assay: SPR, IL-33 on chip, Fab supernatant as analyte
Protocol: (§1) The library after the enrichment was used to construct a library of Escherichia coli secreting and expressing Fab. The culture supernatants of several hundreds of clones of Escherichia coli were subjected to measurement of dissociation rate constant (koff) by surface plasmon resonance (SPR) (ProteOn XPR36, available from Bio-Rad Laboratories, Inc.). The biotinylated human IL-33 protein (4 μg/mL) and cynomolgus monkey IL-33 protein (4 μg/mL) were loaded as ligands on a sensor chip (NLC sensor chip, available from Bio-Rad Laboratories, Inc.), to immobilize the human IL-33 protein at an amount equivalent to 1300 to 1600 RU, and the cynomolgus monkeyIL-33 protein at an amount equivalent to 1100 to 1500 RU. The culture supernatant of Escherichia coli was then loaded thereon as analyte to obtain a sensorgram with association phase of one minute and dissociation phase of 10 to 30 minutes. The sensorgram was subjected to interspot correction and blank correction using an SPR data analysis program (ProteOn Manager v3.1.0, available from Bio-Rad Laboratories, Inc.), and then values of koff were determined by off-rate analysis of Langmuir model.

[2] = biological target: T2, 6His-AviTag-linked cynomolgus monkey …; assay: SPR, IL-33 on chip, Fab supernatant as analyte
Protocol: as §1

Binder | Human IL-33 Binding Amount (RU) [1] | koff [1] | Cynomolgus Monkey IL-33 Binding Amount (RU) [2] | koff [2]
A00-0070 (Fab) (Fab, V domains shown, parental clone as Fab; also called V29; parental clone (Fab)) VH: EVQLLESGGGLVQPGGSLRLSCAASGFTFSDYYMNWVRQAPGKGLEWVSSISSSSSYIYYADSVKGRFTISRDNSKNTLYLQMNSLRAEDTAVYYCARDIGGMDVWGQGTLVTVSS VL: QSVLTQPPSASGTPGQRVTISCTGSSSNIGAVYNVHWYQQLPGTAPKLLIYRNNQRPSGVPDRFSGSKSGTSASLAISGLRSEDEADYYCQSYDSSRWVFGGGTKLTVL | 571 RU | 0.00427 s⁻¹ | 270 RU | 0.00522 s⁻¹
A12-1E04 (Fab) (Fab, V domains shown, Fab secreted by E. coli, tested as culture supernatant; also called V2) VH: EVQLLESGGGLVQPGGSLRLSCAASGFTFSDYYMNWVRQAPGKGLEWVSSISRYSGYVYYADSVKGRFTISRDNSKNTLYLQMNSLRAEDTAVYYCARDIGGMDVWGQGTLVTVSS VL: QSVLTQPPSASGTPGQRVTISCTGSSSNIGAVYDVHWYQQLPGTAPKLLIYRNNQRPSGVPDRFSGSKSGTSASLAISGLRSEDEADYYCQSYDSSRWVFGGGTKLTVL | 414 RU | 2.19e-05 s⁻¹ | 512 RU | 5.58e-05 s⁻¹
A13-1G05 (Fab) (Fab, V domains shown, Fab secreted by E. coli, tested as culture supernatant; also called V7) VH: EVQLLESGGGLVQPGGSLRLSCAASGFTFSDYYVNWVRQAPGKGLEWVSSISRYSGYVYYADSVKGRFTISRDNSKNTLYLQMNSLRAEDTAVYYCARDIGGMDVWGQGTLVTVSS VL: QSVLTQPPSASGTPGQRVTISCTGSSSNIGAVYNVHWYQQLPGTAPKLLIYRNNQRPSGVPDRFSGSKSGTSASLAISGLRSEDEADYYCQSYDSSRWVFGGGTKLTVL | 59 RU | 1e-05 s⁻¹ | 80 RU | 5.45e-05 s⁻¹
A13-1F07 (Fab) (Fab, V domains shown, Fab secreted by E. coli, tested as culture supernatant; also called V6) VH: EVQLLESGGGLVQPGGSLRLSCAASGFTFSVYYMNWVRQAPGKGLEWVSSISRYSGYVYYADSVKGRFTISRDNSKNTLYLQMNSLRAEDTAVYYCARDIGGMDVWGQGTLVTVSS VL: QSVLTQPPSASGTPGQRVTISCTGSSSNIGAVYNVHWYQQLPGTAPKLLIYRNNQRPSGVPDRFSGSKSGTSASLAISGLRSEDEADYYCQSYDSRRWVFGGGTKLTVL | 112 RU | 1e-05 s⁻¹ | 151 RU | 3.48e-05 s⁻¹
A10-1C04 (Fab) (Fab, V domains shown, Fab secreted by E. coli, tested as culture supernatant; also called V1) VH: EVQLLESGGGLVQPGGSLRLSCAASGFTFSDYYMNWVRQAPGKGLEWVSSISRYSSYIYYADSVKGRFTISRDNSKNTLYLQMNSLRAEDTAVYYCARDIGGMDVWGQGTLVTVSS VL: QSVLTQPPSASGTPGQRVTISCTGSSSNIGAVYDVHWYQQLPGTAPKLLIYRNNQRPSGVPDRFSGSKSGTSASLAISGLRSEDEADYYCQTYDSSRWVFGGGTKLTVL | 26 RU | ≤ 1e-05 s⁻¹ | 20 RU | 0.000165 s⁻¹
A12-1H04 (Fab) (Fab, V domains shown, Fab secreted by E. coli, tested as culture supernatant; also called V3) VH: EVQLLESGGGLVQPGGSLRLSCAASGFTFSDYYMDWVRQAPGKGLEWVSSISRYSGYVYYADSVKGRFTISRDNSKNTLYLQMNSLRAEDTAVYYCARDIGGMDVWGQGTLVTVSS VL: QSVLTQPPSASGTPGQRVTISCTGSSSNIGAVYNVHWYQQLPGTAPKLLIYRNNQRPSGVPDRFSGSKSGTSASLAISGLRSEDEADYYCQSYDSSRWVFGGGTKLTVL | 94 RU | 1.94e-05 s⁻¹ | 131 RU | 4.83e-05 s⁻¹
A13-1F05 (Fab) (Fab, V domains shown, Fab secreted by E. coli, tested as culture supernatant; also called V5) VH: EVQLLESGGGLVQPGGSLRLSCAASGFTFSDYYMNWVRQAPGKGLEWVSSISRYSGYIYYADSVKGRFTISRDNSKNTLYLQMNSLRAEDTAVYYCARDIGGMDVWGQGTLVTVSS VL: QSVLTQPPSASGTPGQRVTISCTGSSSNIGAVYNVHWYQQLPGTAPKLLIYRNNQRPSGVPDRFSGSKSGTSASLAISGLRSEDEADYYCQSYDSSRWVFGGGTKLTVL | 127 RU | 1.32e-05 s⁻¹ | 171 RU | 5.79e-05 s⁻¹
A12-1H08 (Fab) (Fab, V domains shown, Fab secreted by E. coli, tested as culture supernatant; also called V4) VH: EVQLLESGGGLVQPGGSLRLSCAASGFTFSDYYMDWVRQAPGKGLEWVSSISRASSYVYYADSVKGRFTISRDNSKNTLYLQMNSLRAEDTAVYYCARDIGGMDVWGQGTLVTVSS VL: QSVLTQPPSASGTPGQRVTISCTGSSSNIGAVYNVHWYQQLPGTAPKLLIYRNNQRPSGVPDRFSGSKSGTSASLAISGLRSEDEADYYCQSYDSSRWVFGGGTKLTVL | 77 RU | 1e-05 s⁻¹ | 102 RU | 7.51e-05 s⁻¹
A00-0036 (Fab) (Fab, V domains shown, parental clone as Fab; also called V30; parental clone (Fab)) VH: EVQLLESGGGLVQPGGSLRLSCAASGFTFSNYYMHWVRQAPGKGLEWVSSISSSSSYIYYADSVKGRFTISRDNSKNTLYLQMNSLRAEDTAVYYCARLGTRHDAFDIWGQGTLVTVSS VL: QSVLTQPPSASGTPGQRVTISCSGSSSNIGNNAVNWYQQLPGTAPKLLIYASNMRRLGVPDRFSGSKSGTSASLAISGLRSEDEADYYCAAWDDSQKAVVFGGGTKLTVL | 78 RU | 0.0152 s⁻¹ | 59 RU | 0.0347 s⁻¹

Second part, the binder after the results:

Human IL-33 Binding Amount (RU) [1] | koff [1] | Cynomolgus Monkey IL-33 Binding Amount (RU) [2] | koff [2] | Binder
950 RU | 1e-05 s⁻¹ | 832 RU | 1e-05 s⁻¹ | A25-2D01 (Fab) (Fab, V domains shown, Fab secreted by E. coli, tested as culture supernatant; also called V9) VH: EVQLLESGGGLVQPGGSLRLSCAASGFTFSNYYMHWVRQAPGKGLEWVSSISARSSYIYYADSVKGRFTISRDNSKNTLYLQMNSLRAEDTAVYYCARLATRNNAFDIWGQGTLVTVSS VL: QSVLTQPPSASGTPGQRVTISCSGSSSNIGRNAVNWYQQLPGTAPKLLIYASNMRVIGVPDRFSGSKSGTSASLAISGLRSEDEADYYCAAWDDSQKAWVFGGGTKLTVL
930 RU | 1e-05 s⁻¹ | 839 RU | 1e-05 s⁻¹ | A25-2C02 (Fab) (Fab, V domains shown, Fab secreted by E. coli, tested as culture supernatant; also called V15) VH: EVQLLESGGGLVQPGGSLRLSCAASGFTFSNYYMHWVRQAPGKGLEWVSSISARSSYIYYADSVKGRFTISRDNSKNTLYLQMNSLRAEDTAVYYCARLATRNNAFDIWGQGTLVTVSS VL: QSVLTQPPSASGTPGQRVTISCSGSSSNIGRNAVNWYQQLPGTAPKLLIYASNMRVSGVPDRFSGSKSGTSASLAISGLRSEDEADYYCWAWDDSQKVGVFGGGTKLTVL
334 RU | 3.41e-05 s⁻¹ | 330 RU | 7.37e-05 s⁻¹ | A25-2C07 (Fab) (Fab, V domains shown, Fab secreted by E. coli, tested as culture supernatant; also called V13) VH: EVQLLESGGGLVQPGGSLRLSCAASGFTFSNYYMHWVRQAPGKGLEWVSSISARSSYIYYADSVKGRFTISRDNSKNTLYLQMNSLRAEDTAVYYCARLATRNNAFDIWGQGTLVTVSS VL: QSVLTQPPSASGTPGQRVTISCSGSSSNIGNNAVNWYQQLPGTAPKLLIYASNMRGSGVPDRFSGSKSGTSASLAISGLRSEDEADYYCAAWDDSQKGQVFGGGTKLTVL
480 RU | 1.36e-05 s⁻¹ | 501 RU | 1.59e-05 s⁻¹ | A25-2C06 (Fab) (Fab, V domains shown, Fab secreted by E. coli, tested as culture supernatant; also called V12) VH: EVQLLESGGGLVQPGGSLRLSCAASGFTFSNYYMHWVRQAPGKGLEWVSSISARSSYIYYADSVKGRFTISRDNSKNTLYLQMNSLRAEDTAVYYCARLATRNNAFDIWGQGTLVTVSS VL: QSVLTQPPSASGTPGQRVTISCSGSSSNIGRNAVNWYQQLPGTAPKLLIYASNMRVIGVPDRFSGSKSGTSASLAISGLRSEDEADYYCGAWDDSQKRYVFGGGTKLTVL
256 RU | 1e-05 s⁻¹ | 237 RU | 1e-05 s⁻¹ | A25-2B02 (Fab) (Fab, V domains shown, Fab secreted by E. coli, tested as culture supernatant; also called V10) VH: EVQLLESGGGLVQPGGSLRLSCAASGFTFSNYYMHWVRQAPGKGLEWVSSISARSSYIYYADSVKGRFTISRDNSKNTLYLQMNSLRAEDTAVYYCARLATRNNAFDIWGQGTLVTVSS VL: QSVLTQPPSASGTPGQRVTISCSGSSSNIGRNAVNWYQQLPGTAPKLLIYASNMRVLGVPDRFSGSKSGTSASLAISGLRSEDEADYYCWAWDDSQKAVVFGGGTKLTVL
52 RU | 1.58e-05 s⁻¹ | 54 RU | 2.61e-05 s⁻¹ | A23-1A05 (Fab) (Fab, V domains shown, Fab secreted by E. coli, tested as culture supernatant; also called V8) VH: EVQLLESGGGLVQPGGSLRLSCAASGFTFSNYYMHWVRQAPGKGLEWVSSISARSRYHYYADSVKGRFTISRDNSKNTLYLQMNSLRAEDTAVYYCARLATRHNAFDIWGQGTLVTVSS VL: QSVLTQPPSASGTPGQRVTISCSGSSSNIGNNAVSWYQQLPGTAPKLLIYASNMRVIGVPDRFSGSKSGTSASLAISGLRSEDEADYYCGAWDDSQKALVFGGGTKLTVL

— US20240002495A1 (MITSUBISHI TANABE PHARMA, published 2024)
